Data set [1] can be described thus: Oscillatory rheological test of peptide hydrogel stiffness (storage modulus G′). Type of data set: physicochemical. The following applies: for Storage modulus: 1 rad/s, 0.1% strain. As for the experimental part: Therefore, in one embodiment, the mechanical stiffness of each peptide hydrogel is assessed by the storage modulus (G′) at different concentrations.
The oscillatory rheological test was performed to determine the mechanical properties of the peptide hydrogels. The peptide hydrogels were measured on a TA Ares G2 rheometer with an 8 mm parallel-plate geometry and a 1.5 mm gap distance at a temperature of 22° C. All of the hydrogels were made inside a Sigmacote®-coated glass ring with 9 mm inner diameter 19 h prior to measurement. Six replicates with a volume of 150 μL were prepared for each sample. […]

Data set [2] is described as follows: Vial inversion test: gelation time and critical gelation concentration. The format is physicochemical. As for the experimental part: In one embodiment, an instant hydrogel formation can be observed when PBS buffer is added to the peptide solution. In one embodiment, the gelation time is determined using a vial inversion test performed at different peptide concentrations in 1×PBS to meet physiological conditions. FIG. 13 compares the gelation time of IVFK and IVZK at different concentration.
The lyophilized peptide powders were dissolved in Milli-Q® water by vortexing into a clear solution at room temperature. Then, 10× phosphate-buffered saline (PBS) was added to the aqueous peptide solution at a final volume ratio of peptide solution to 10×PBS of 9:1. The vial inversion test was performed with different peptide concentrations to find the critical gelation concentration (CGC). To study the spatial structure of the peptide solution during the assembly process, two-dimensional (2D) NMR was performed using Bruker Avance III 600 MHz. Furthermore, scanning electron microscopy (SEM) was performed to visualize the morphology of the self-assembled nanofibers.

Data set [3] has as its system BM-MSCs. Nature of the data set: Quantitative RT-PCR of osteogenic genes. The format is cell-based, human. As to conditions: after 30 days of culture. On the procedure:
Real-time polymerase chain reaction (PCR) values of the BM-MSC gene expressions of the bone morphogenetic protein (BMP-2) (FIG. 37), bone sialoprotein 2 (IBSP) (FIG. 35), osteopontin (OPN) (FIG. 38), osterix (OSX) (FIG. 39), and RUNX2 (FIG. 36) are evaluated after 30 days of culture. […] In FIGS. 35-39, * mens p<0.05 and ** means p<0.001, indicating statistical significance.
The BM-MSCs were cultured on different scaffolds with an osteogenic medium for 4 weeks. Total RNA was extracted using the TRIzol™ reagent. RNA concentration and purity were measured using a NanoDrop® 8000 spectrophotometer (Thermo Fisher®). Complementary DNA (cDNA) was synthesized using the ImProm-II Reverse Transcription System. Primer sequences were taken from previously published studies and are summarized in below. Relative quantification was performed using the comparative CT (2-ΔΔCT) and normalized against glyceraldehyde 3-phosphate dehydrogenase (GAPDH), which was used as a housekeeping gene to calculate the fold change in gene expression. BM-MSCs on a 2D culture using basal media were used as controls.

Data set [4] deals with MSCs. Nature of the data set: SEM of cell-matrix interaction. Type of data set: cell-based, human. The following applies: after 14 days of culture. As for the experimental part:
Scale bars are 5 and 10 μm, in the left and right panels respectively.
SEM was also used to determine the cell-matrix interaction. First, the cells encapsulated in hydrogels were fixed in 2.5% glutaraldehyde for overnight (4° C.) and then washed using PBS. The samples were subsequently incubated in 1% osmium tetroxide for one hour and washed with water. Afterwards, the dehydration was done by immersing them in increasing concentrations of ethanol: 30, 50, 70, 90 and 100%, 15 min each step. Then, the samples were processed in critical point dryer. The dried samples were then mounted and coated with 5 nm Ir thickness.

Non-standard residues stand in square brackets, D forms with d. Cha = N[C@@H](CC1CCCCC1)C(=O)O

Consider “Ac-Ile-Val-Cha-Lys-NH2 (Ac-IV[Cha]K-NH2; not fully specified; printed as Ac-Ile-Val-Cha-Lys-NH2) [IVZK, nonaromatic self-assembling tetrapeptide (Z = cyclohexylalanine) forming hydrogel scaffold]”, for which the “G′ value, IVZK versus IVFK” value in data set [1] (at the same concentration) is given as “higher G′ value compared to IVFK”. For the same substance, the Storage modulus in data set [1] (peptide hydrogel 2 mg/mL) is recorded as 10.00 ± 0.12 kPa; in data set [1] (peptide hydrogel 3 mg/mL), 17.21 ± 1.38 kPa; in data set [1] (peptide hydrogel 4 mg/mL), 29.77 ± 1.19 kPa; in data set [1] (peptide hydrogel 6 mg/mL), 43.03 ± 2.81 kPa; in data set [1] (peptide hydrogel 8 mg/mL) it was 75.21 ± 4.08 kPa. Further, in data set [2] (aqueous solution, 1× PBS), the “critical gelation concentration (CGC)” value is 2 mg/mL. The gelation time entry in data set [2] (different peptide concentrations in 1×PBS, IVZK versus IVFK) is reported as “less time to form the hydrogel, compared to IVFK”. Besides, the OPN gene expression entry in data set [3] is “downregulated”. Moreover, in data set [4], the “cell morphology by SEM” value is on record as “elongated spindlelike morphology”.

These data come from patent publication US12109327B2, “Scaffolds from self-assembling tetrapeptides support 3D spreading, osteogenic differentiation and angiogenesis of mesenchymal stem cells” (KING ABDULLAH UNIVERSITY OF SCIENCE AND TECHNOLOGY, priority 2020, dated 2024).
